Details: Geobacillus stearothermophilus, pH 7.5, 25 °C, Fluorescence, TEA 50 mM, reversible: yes, whole UniProt chain shown

B1: Phosphoglycerate kinase wild type, P18912 (protein)
chain: MNKKTIRDVDVRGKRVFCRVDFNVPMEQGAITDDTRIRAALPTIRYLIEHGAKVILASHLGRPKGKVVEELRLDAVAKRLGELLERPVAKTNEAVGDEVKAAVDRLNEGDVLLLENVRFYPGEEKNDPELAKAFAELADLYVNDAFGAAHRAHASTEGIAHYLPAVAGFLMEKELEVLGKALSNPDRPFTAIIGGAKVKDKIGVIDNLLEKVDNLIIGGGLAYTFVKALGHDVGKSLLEEDKIELAKSFMEKAKEKGVRFYMPVDVVVADRFANDANTKVVPIDAIPADWSALDIGPKTRELYRDVIRESKLVVWNGPMGVFEMDAFAHGTKAIAEALAEALDTYSVIGGGDSAAAVEKFGLADKMDHISTGGGASLEFMEGKQLPGVVALEDK
- unfolding free energy (GdnHCl): 4.35 kcal/mol
- unfolding free energy (Urea): 4.21 kcal/mol

Source: FireProtDB (doi:10.1021/bi00066a003)
